Article PMC4370504, “Structural Basis for Ubiquitin Recognition by Ubiquitin-Binding Zinc Finger of FAAP20” (PLoS ONE, 2015)

Assays:
Assay in all cases: SPR; Biacore T200, Sensor Chip C1; GST-fused Ub or Ub2 captured by immobilised anti-GST antibodies (200-400 RU); FAAP20-UBZ injected 60 s at 10 uL/min; 25°C, HBS-P (10 mM HEPES-Na pH 7.4, 150 mM NaCl, 0.05% surfactant P20); equilibrium fit, 1:1 model; triplicate
Conditions in all cases: both partners purified
[1] = target: T1, GST-fused M1-linked diubiquitin (M1-Ub2) (UniProt P0CG48 1-76; P0CG48 1-76)
T1 construct: ubiquitin, first (distal) moiety of the M1-linked (linear, head-to-tail) diubiquitin; ubiquitin, second (proximal) moiety, its Met1 joined to Gly76 of the first; Written as one chain of two ubiquitins, as M1-linked; also called M1-linked Ub2; GST-fused M1-Ub2; source: purified (Glutathione Sepharose FF, ResourceQ)

GST-fused ubiquitin (Ub) [2] = target: T2, GST-fused ubiquitin (Ub) (UniProt P0CG48 1-76)
T2 construct: ubiquitin (Ub), the mature product of a ubiquitin precursor; Captured on the chip by anti-GST antibodies; source: purified (Glutathione Sepharose FF, ResourceQ)

[3] = target: T3, GST-fused K63-linked diubiquitin (K63-Ub2) (UniProt P0CG48 1-76; P0CG48 1-76, K63R | additional aspartate residue at its C-terminal extremity (D77), K63-linked to the other Ub chain | K63-linked to the other Ub chain)
T3 construct: ubiquitin carrying the K63R mutation, GST-fused; ubiquitin with an additional aspartate residue at its C-terminal extremity (D77 Ub); Surmised: Gly76 of GST-K63R Ub (distal) is joined by an isopeptide bond to Lys63 of D77 Ub (proximal); also called K63-linked Ub2; GST-fused K63-Ub2

[4] = target: T4, GST-fused K48-linked diubiquitin (K48-Ub2) (UniProt P0CG48 1-76; P0CG48 1-76, K48R | additional aspartate residue at its C-terminal extremity (D77), K48-linked to the other Ub chain | K48-linked to the other Ub chain)
T4 construct: ubiquitin carrying the K48R mutation, GST-fused; ubiquitin with an additional aspartate residue at its C-terminal extremity (D77 Ub); Surmised: Gly76 of GST-Ub K48R (distal) is joined by an isopeptide bond to Lys48 of D77 Ub (proximal); also called K48-linked Ub2; GST-fused K48-Ub2

[5] = target: T3, GST-fused K63-linked diubiquitin …; remark: listed apart in the source
GST-fused ubiquitin (Ub) [6] = target: T2, GST-fused ubiquitin (Ub); remark: listed apart in the source

B1: FAAP20-UBZ (UBZ domain of FAAP20, residues 142-180), wild type (domain or fragment, human, UniProt Q6NZ36 142-180, looked up)
chain: AALRSCPMCQKEFAPRLTQLDVDSHLAQCLAESTEDVTW
notes: also called FAAP20-UBZ(wt); WT; source: E. coli Rosetta (DE3), purified (Glutathione Sepharose FF, ResourceQ, HRV3C cleavage, Superdex75); not shown: GST, N-terminal, cleaved
Question: How did the Kd [1] turn out when B1 was run?
Answer: 22.3 µM

Question: And the Kd (GST-fused ubiquitin (Ub) [2])?
Answer: 19.9 µM

Question: What about the Kd [3] of the same binder?
Answer: 35.9 µM

Question: What about the Kd [4] of the same binder?
Answer: 39.1 µM

Question: What about the “stoichiometry N” value [5] of the same binder?
Answer: 2

B2: FAAP20-UBZ A172L (domain or fragment, human, UniProt Q6NZ36 142-180, looked up)
chain: AALRSCPMCQKEFAPRLTQLDVDSHLAQCLLESTEDVTW
notes: human FAAP20, UBZ domain, residues 142-180; source: purified similarly to wild-type FAAP20-UBZ (E. coli Rosetta (DE3)); not shown: GST, N-terminal, cleaved
Question: For B2, which Kd (GST-fused ubiquitin (Ub) [6]) is on record?
Answer: 113 µM

B3: FAAP20-UBZ D177A (domain or fragment, human, UniProt Q6NZ36 142-180, looked up)
chain: AALRSCPMCQKEFAPRLTQLDVDSHLAQCLAESTEAVTW
notes: as for B2
Question: How did the Kd (GST-fused ubiquitin (Ub) [6]) turn out when B3 was run?
Answer: 218 µM

B4: FAAP20-UBZ L161A (domain or fragment, human, UniProt Q6NZ36 142-180, looked up)
chain: AALRSCPMCQKEFAPRLTQADVDSHLAQCLAESTEDVTW
notes: as for B2
Question: B4 was tested. Which Kd (GST-fused ubiquitin (Ub) [6]) did it give?
Answer: 125 µM
